For data set [1], the target named is Drosophila melanogaster septin hexamers composed of His6-DSep1, DSep2, Pnut-StrepII (Drosophila melanogaster) (UniProt P42207). In words: atomic force microscopy on supported lipid bilayers; 12, 24 or 60 nM hexamers for 15 min at 19°C on silica-supported bilayers of 80% PC and 20% PS in polymerization buffer; mostly fixed with 1% glutaraldehyde, also unfixed.
For data set [2], the target named is Drosophila melanogaster septin hexamers composed of His6-DSep1, mEGFP-DSep2, and Pnut-StrepII (Drosophila melanogaster) (UniProt P42207). In words: TIRF microscopy of bundles formed in solution; mEGFP-tagged hexamers diluted from 300 mM KCl into polymerization buffer with 50 mM KCl (20 mM imidazole pH 7.4), 100, 200, 500 nM; crowded onto a neutral PC bilayer with 0.1 wt-% methylcellulose; 20°C.

Data set [3] concerns the molecule itself. In words: scanning transmission electron microscopy (STEM) with mass-per-length mapping; septins preassembled for 1 hr at 20°C in solution at 50-500 nM, no membrane; TMV rods as mass standard.

Data on three molecules can be found in article PMC8099429, “Membrane binding controls ordered self-assembly of animal septins” (eLife, 2021).

“Drosophila melanogaster septin hexamers composed of His6-DSep1, DSep2, Pnut-StrepII (from UniProt P42207 1-361; P54359 1-419; P40797 1-539) (complex)” registered a threshold concentration for polymerization on negatively charged membranes in data set [1] of less than 12 nM.
In turn, “Drosophila melanogaster septin hexamers composed of His6-DSep1, mEGFP-DSep2, and Pnut-StrepII (from UniProt P42207 1-361; P54359 1-419; P40797 1-539) (complex)” showed a threshold concentration for polymerization in solution in data set [2] of 200 nM.

B1: Budding yeast septin octamers composed of Cdc3, Cdc10, Cdc11, and His6-Cdc12 (complex, budding yeast (S. cerevisiae))
chain 1: MSLKEEQVSIKQDPEQEERQHDQFNDVQIKQESQDHDGVDSQYTNGTQNDDSERFEAAESDVKVEPGLGMGITSSQSEKGQVLPDQPEIKFIRRQINGYVGFANLPKQWHRRSIKNGFSFNLLCVGPDGIGKTTLMKTLFNNDDIEANLVKDYEEELANDQEEEEGQGEGHENQSQEQRHKVKIKSYESVIEENGVKLNLNVIDTEGFGDFLNNDQKSWDPIIKEIDSRFDQYLDAENKINRHSINDKRIHACLYFIEPTGHYLKPLDLKFMQSVYEKCNLIPVIAKSDILTDEEILSFKKTIMNQLIQSNIELFKPPIYSNDDAENSHLSERLFSSLPYAVIGSNDIVENYSGNQVRGRSYPWGVIEVDNDNHSDFNLLKNLLIKQFMEELKERTSKILYENYRSSKLAKLGIKQDNSVFKEFDPISKQQEEKTLHEAKLAKLEIEMKTVFQQKVSEKEKKLQKSETELFARHKEMKEKLTKQLKALEDKKKQLELSINSASPNVNHSPVPTKKKGFLR
chain 2: MDPLSSVQPASYVGFDTITNQIEHRLLKKGFQFNIMVVGQSGLGKSTLINTLFASHLIDSATGDDISALPVTKTTEMKISTHTLVEDRVRLNINVIDTPGFGDFIDNSKAWEPIVKYIKEQHSQYLRKELTAQRERFITDTRVHAILYFLQPNGKELSRLDVEALKRLTEIANVIPVIGKSDTLTLDERTEFRELIQNEFEKYNFKIYPYDSEELTDEELELNRSVRSIIPFAVVGSENEIEINGETFRGRKTRWSAINVEDINQCDFVYLREFLIRTHLQDLIETTSYIHYEGFRARQLIALKENANSRSSAHMSSNAIQR
chain 3: MSGIIDASSALRKRKHLKRGITFTVMIVGQSGSGRSTFINTLCGQQVVDTSTTILLPTDTSTEIDLQLREETVELEDDEGVKIQLNIIDTPGFGDSLDNSPSFEIISDYIRHQYDEILLEESRVRRNPRFKDGRVHCCLYLINPTGHGLKEIDVEFIRQLGSLVNIIPVISKSDSLTRDELKLNKKLIMEDIDRWNLPIYNFPFDEDEISDEDYETNMYLRTLLPFAIIGSNEVYEMGGDVGTIRGRKYPWGILDVEDSSISDFVILRNALLISHLHDLKNYTHEILYERYRTEALSGESVAAESIRPNLTKLNGSSSSSTTTRRNTNPFKQSNNINNDVLNPASDMHGQSTGENNETYMTREEQIRLEEERLKAFEERVQQELLLKRQELLQREKELREIEARLEKEAKIKQEE
chain 4: MSAATATAAPVPPPVGISNLPNQRYKIVNEEGGTFTVMLCGESGLGKTTFINTLFQTVLKRADGQQHRQEPIRKTVEIDITRALLEEKHFELRVNVIDTPGFGDNVNNNKAWQPLVDFIDDQHDSYMRQEQQPYRTKKFDLRVHAVLYFIRPTGHGLKPIDIETMKRLSTRANLIPVIAKADTLTAQELQQFKSRIRQVIEAQEIRIFTPPLDADSKEDAKSGSNPDSAAVEHARQLIEAMPFAIVGSEKKFDNGQGTQVVARKYPWGLVEIENDSHCDFRKLRALLLRTYLLDLISTTQEMHYETYRRLRLEGHENTGEGNEDFTLPAIAPARKLSHNPRYKEEENALKKYFTDQVKAEEQRFRQWEQNIVNERIRLNGDLEEIQGKVKKLEEQVKSLQVKKSHLK
notes: Cdc3, budding yeast septin; Cdc10, budding yeast septin; Cdc11, budding yeast septin; Cdc12, budding yeast septin; Two copies of each chain follow from the word octamer with four named subunits; also called yeast septins; budding yeast septins; source: purified as described (Bertin et al., 2008); copies: 2 + 2 + 2 + 2
Turning to B1, in data set [3], the binding result is “binds”.
